From IntAct's records for PubMed 15660133

B1: Protein phosphatase Slingshot homolog 1 (Homo sapiens), Q8WYL5 (parent)
chain: MALVTLQRSPTPSAASSSASNSELEAGSEEDRKLNLSLSESFFMVKGAALFLQQGSSPQGQRSLQHPHKHAGDLPQHLQVMINLLRCEDRIKLAVRLESAWADRVRYMVVVYSSGRQDTEENILLGVDFSSKESKSCTIGMVLRLWSDTKIHLDGDGGFSVSTAGRMHIFKPVSVQAMWSALQVLHKACEVARRHNYFPGGVALIWATYYESCISSEQSCINEWNAMQDLESTRPDSPALFVDKPTEGERTERLIKAKLRSIMMSQDLENVTSKEIRNELEKQMNCNLKELKEFIDNEMLLILGQMDKPSLIFDHLYLGSEWNASNLEELQGSGVDYILNVTREIDNFFPGLFAYHNIRVYDEETTDLLAHWNEAYHFINKAKRNHSKCLVHCKMGVSRSASTVIAYAMKEFGWPLEKAYNYVKQKRSITRPNAGFMRQLSEYEGILDASKQRHNKLWRQQTDSSLQQPVDDPAGPGDFLPETPDGTPESQLPFLDDAAQPGLGPPLPCCFRRLSDPLLPSPEDETGSLVHLEDPEREALLEEAAPPAEVHRPARQPQQGSGLCEKDVKKKLEFGSPKGRSGSLLQVEETEREEGLGAGRWGQLPTQLDQNLLNSENLNNNSKRSCPNGMEDDAIFGILNKVKPSYKSCADCMYPTASGAPEASRERCEDPNAPAICTQPAFLPHITSSPVAHLASRSRVPEKPASGPTEPPPFLPPAGSRRADTSGPGAGAALEPPASLLEPSRETPKVLPKSLLLKNSHCDKNPPSTEVVIKEESSPKKDMKPAKDLRLLFSNESEKPTTNSYLMQHQESIIQLQKAGLVRKHTKELERLKSVPADPAPPSRDGPASRLEASIPEESQDPAALHELGPLVMPSQAGSDEKSEAAPASLEGGSLKSPPPFFYRLDHTSSFSKDFLKTICYTPTSSSMSSNLTRSSSSDSIHSVRGKPGLVKQRTQEIETRLRLAGLTVSSPLKRSHSLAKLGSLTFSTEDLSSEADPSTVADSQDTTLSESSFLHEPQGTPRDPAATSKPSGKPAPENLKSPSWMSKS

Variants of: B1
Settings: with limk1_human LIMK1, P53667
Chain of limk1_human LIMK1, P53667 (P53667 whole entry, looked up): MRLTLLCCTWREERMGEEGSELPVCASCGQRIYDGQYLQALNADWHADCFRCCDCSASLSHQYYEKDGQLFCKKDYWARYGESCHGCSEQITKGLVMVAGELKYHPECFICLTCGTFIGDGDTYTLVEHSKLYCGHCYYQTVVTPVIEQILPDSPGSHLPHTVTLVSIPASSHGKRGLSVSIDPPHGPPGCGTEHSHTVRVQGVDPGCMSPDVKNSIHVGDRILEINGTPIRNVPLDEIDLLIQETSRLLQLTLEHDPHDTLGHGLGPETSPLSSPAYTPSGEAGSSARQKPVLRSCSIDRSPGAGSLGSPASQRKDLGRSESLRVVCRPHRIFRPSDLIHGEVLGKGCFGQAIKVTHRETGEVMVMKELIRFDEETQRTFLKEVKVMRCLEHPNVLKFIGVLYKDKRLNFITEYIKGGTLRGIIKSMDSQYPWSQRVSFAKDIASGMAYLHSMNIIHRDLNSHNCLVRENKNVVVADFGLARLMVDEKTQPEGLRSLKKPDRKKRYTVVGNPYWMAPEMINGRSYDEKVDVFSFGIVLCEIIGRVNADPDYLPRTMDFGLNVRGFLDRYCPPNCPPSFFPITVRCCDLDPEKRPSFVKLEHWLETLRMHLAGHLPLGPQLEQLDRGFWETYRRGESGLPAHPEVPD

Row | Variant | effect of a mutation on the interaction
1 | C393S | disrupting interaction
